For assay [1] the following is noted: when taken for one year; cited from earlier work.
The target in a further assay is T1, human glucagon receptors (Homo sapiens, UniProt P47871).
T1 construct: a region corresponding to Open Reading Frame (ORF) in the cDNA; expressed in transfected cells
Nature of the assay: cAMP activity of glucagon derivatives in CHO cell line transfected with human glucagon receptor (LANCE cAMP kit). It is filed as cell-based. Particulars: cAMP EC50 compared with that of native glucagon; CHO cells with human glucagon receptor. How it is done:
PCR was performed using a region corresponding to Open Reading Frame (ORF) in the cDNA (OriGene Technologies, Inc., USA) of human glucagon receptor gene as a template along with the following forward and reverse primers (SEQ ID NOS: 47 and 48, respectively), which include each of the EcoRI and XhoI restriction sites.
The PCR product was cloned into a known animal cell expression vector, x0GC/dhfr, to prepare a recombinant vector x0GC/GCGR.
CHO DG44 cell line cultured in DMEM/F12 (10% FBS) medium was transfected with the recombinant vector x0GC/GCGR using LIPOFECTAMINE®, and cultured in a selection medium containing G418 (1 mg/mL) and methotraxate (10 nM).
Specifically, the transfected cell line was subcultured 3 to 4 times a week, aliquoted into a 384-well plate in an amount of 6×10^3 cell lines/well, and cultured for 24 hours. Native glucagon and glucagon derivatives were suspended in Hank's balanced salt solution (HBSS) buffer containing 0.5 mM of 3-isobutyl-1-methylxanthine (IBMX), 0.1% bovine serum albumin (BSA), and 5 mM 4-(2-hydroxyethyl)-1-piperazineethanesulfonic acid (HEPES) with the culture cells, at concentrations of 200 nM and 1600 nM, respectively, continuously subjected into a 4-fold dilution 10 times, applied to a cAMP assay kit (LANCE cAMP 384 kit, PerkinElmer), and added to the cultured cells, and their fluorescence value was measured.
(TR-FRET usually uses a lanthanide donor and a delayed reading to cut background.)

Bridge positions count the residues as written; N and C are the ends. Square brackets hold non-standard residues; d marks the D form. Ends that are not written are not given here. Aib = CC(C)(N)C(=O)O

T1 sequence (P47871 26-477): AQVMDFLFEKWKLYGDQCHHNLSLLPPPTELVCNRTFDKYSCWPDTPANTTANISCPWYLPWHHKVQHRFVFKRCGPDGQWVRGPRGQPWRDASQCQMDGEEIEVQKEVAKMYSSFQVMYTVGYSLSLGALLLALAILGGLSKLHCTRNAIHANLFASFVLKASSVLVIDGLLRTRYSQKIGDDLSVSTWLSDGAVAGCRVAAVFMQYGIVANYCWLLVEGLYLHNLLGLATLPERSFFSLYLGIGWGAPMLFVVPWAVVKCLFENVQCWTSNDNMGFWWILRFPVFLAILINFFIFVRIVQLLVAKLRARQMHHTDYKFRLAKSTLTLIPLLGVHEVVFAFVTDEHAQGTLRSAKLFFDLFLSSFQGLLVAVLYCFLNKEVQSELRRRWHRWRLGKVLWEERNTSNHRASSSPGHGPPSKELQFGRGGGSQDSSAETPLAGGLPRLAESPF

`CCCCCCCCCCC[C@@H](C[C@@H]1OC(=O)[C@H]1CCCCCC)OC(=O)[C@H](CC(C)C)NC=O` [ORLISTAT]: the weight loss result in assay [1] is listed as “about 4 kg”.
Turning to “YXQGTFTSDYSKYLDSRRAQDFVQWLMNTC (Aib at position 2; glucagon derivative; (2) Xaa is aminoisobutyric acid (Aib)) [SEQ ID NO: 44, glucagon derivative, X = Aib]”, in the assay with human glucagon receptors, the “In vitro Activity (Relative Activity of SEQ ID NO: 1, %)” value amounted to 75.4%.
Still for that read-out and setting: then “YXQGTFVSDCSKYLDERRAKDFVQWLMNT (Y[Aib]QGTFVSDCSKYLDERRAKDFVQWLMNT; bridge 16-20) [SEQ ID NO: 39, glucagon derivative, X = Aib]”, with 3.7%; and “YXQGTFVSDYSKYLDECRAKDFVQWLMNT (Y[Aib]QGTFVSDYSKYLDECRAKDFVQWLMNT; bridge 16-20) [SEQ ID NO: 27, glucagon derivative, X = Aib]”, with 93.6%; and “YXQGTFVSDYSKYLDERRAKDFVQWLMNTC (Y[Aib]QGTFVSDYSKYLDERRAKDFVQWLMNTC; bridge 16-20) [SEQ ID NO: 40, glucagon derivative, X = Aib]”, with 40.8%.
